B1: NAT16 (HisAT) (Homo sapiens) (protein)
chain: MKLEASCGTATSEVPKPEKKTARDAEPSSETRPQEVEAEPRSGSGPEAEAEPLDFVVATEREFEEVLAISGGIYGGLDYLPSRYHSWLRDPDRTVVLAKRNGGVIALESVNVIDAGETVLVEGLRVAPWERGKGVAGLLQRFCSQLVKRQHPGVKVARLTRDDQLGPRELKKYRLITKQGILLVRFNASALLAGLGARLAALRTSGTFSPLPTEAVSEAGGDVARLLLSPSVQRDVLPGGTIIQDWQPYRPSESNLRLLAAKGLEWRVDSRARPRVLTLCTRPFPIPHGGDGTWRYLNIDAFGSDGAQVQSQLLWHLQRQAPRLVGLNVMCQLFLEPQLWSQLADFCQVGLGLELVKGYTEQYLLEADI
notes: full length (369 aa), C-terminal 6xHis tag kept, codon-optimised, pFastBac1, Sf9 insect cells

Columns and labels:
[1] = biological target: T1, NAT16 (HisAT) (Homo sapiens, UniProt Q8N8M0); test: DTNB real-time assay, Michaelis-Menten fit; type: biochemical; conditions: 50 µM Ac-CoA; 50 mM Na-phosphate pH 7.5, 37 °C
T1 construct: full length (369 aa), C-terminal 6xHis tag kept, codon-optimised, pFastBac1, Sf9 insect cells
T1 sequence (Q8N8M0 1-369): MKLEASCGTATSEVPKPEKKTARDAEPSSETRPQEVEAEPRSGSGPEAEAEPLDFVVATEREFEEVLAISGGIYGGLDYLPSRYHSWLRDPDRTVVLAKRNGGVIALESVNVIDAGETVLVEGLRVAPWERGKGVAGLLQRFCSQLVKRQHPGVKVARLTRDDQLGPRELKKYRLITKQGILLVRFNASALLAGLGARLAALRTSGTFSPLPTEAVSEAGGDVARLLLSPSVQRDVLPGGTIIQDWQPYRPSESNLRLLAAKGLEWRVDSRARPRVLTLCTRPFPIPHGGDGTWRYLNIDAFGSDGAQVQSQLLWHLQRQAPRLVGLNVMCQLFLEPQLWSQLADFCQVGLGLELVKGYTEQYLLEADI

[2] = substrate: N[C@@H](Cc1c[nH]cn1)C(=O)O; test: DTNB real-time assay, initial rates, ternary complex model, secondary plots; type: biochemical, Homo sapiens; conditions: varied with Ac-CoA, 50 mM Na-phosphate pH 7.5, 100 mM NaCl, 1 mM EDTA, 37 °C
Excerpt: (§1) DTNB real-time assay, initial rates, ternary complex model, secondary plots on NAT16 (HisAT)

[3] = substrate: CC(=O)SCCNC(=O)CCNC(=O)[C@H](O)C(C)(C)COP(=O)(O)OP(=O)(O)OC[C@H]1O[C@@H](n2cnc3c(N)ncnc32)[C@H](O)[C@@H]1OP(=O)(O)O; test: as above; type: biochemical, Homo sapiens; conditions: varied with L-histidine, 50 mM Na-phosphate pH 7.5, 100 mM NaCl, 1 mM EDTA, 37 °C
Excerpt: as §1

| Molecule | apparent KM [1] | Km [2] | kcat [2] | kcat/Km [2] | Km [3] | kcat [3] | kcat/Km [3] |
| --- | --- | --- | --- | --- | --- | --- | --- |
| N=C(N)NCCC[C@H](N)C(=O)O [arginine] | determined the apparent kcat and KM with arginine and lysine | – | – | – | – | – | – |
| NCCCC[C@H](N)C(=O)O [lysine] | determined the apparent kcat and KM with arginine and lysine | – | – | – | – | – | – |
| B1 | – | 215 ± 53 µM | 36.5 ± 4.6 s⁻¹ | 177000 M⁻¹ s⁻¹ | 19.8 ± 4.5 µM | 36.5 ± 4.6 s⁻¹ | 1.9e+06 M⁻¹ s⁻¹ |
